According to patent publication US11780927B2, “Anti-CD40 antibodies for use in prevention of graft rejection” (NOVARTIS AG, priority 2018, dated 2023):
Several values for one entry are separate records, joined by “and”; a condition that tells them apart may be missing. Equal values may be shown once.

Tests used:
[1] = test system: transplanted kidney grafts; assay: Allograft biopsies scored by Chronic Allograft Damage Index (CADI); assay type: in vivo, human; conditions: final biopsy
From the text: The quality of the graft was estimated using the Chronic Allograph Damage Index (CADI) (Isoniemi et al. 1992 and 1994), where scores of ≤1 reflects normal renal histology and higher scores correlate with poor long-term outcome (Hayry et al. 2004, Yilmaz et al. 2007, Yilmaz et al. 2003). Pristine renal histology was found in 3 of 5 patients on iscalimab (60%) and in none of the 7 treated with tacrolimus (0%). The average CADI was 1.60±0.60 for CFZ533 (n=5) vs. 5.14±0.80 for tacrolimus (n=7), (mean±SEM, p<0.01 using Student t)
A PoC Study in de Novo Renal Transplantation (CCFZ533X2101/NCT02217410) using CFZ533 was performed. […] Allograft biopsies were performed on a subset of study patients. A pathologist, blinded to therapy, reviewed and scored all biopsy slides using the established Banff criteria and calculated the chronic allograft damage index (CADI, Nickerson P et al., Legendre C et al., Seron D et al.,). A CADI of 1 or less was considered as ‘normal renal histology’. Two patients were excluded from the analysis, since they switched therapy after only 2 months. […] The average CADI at final biopsy was 1.6±0.6 for CFZ533 and 5.1±0.8 for tacrolimus, p<0.01.

recombinant human CD40 = recombinant human CD40 (Homo sapiens, UniProt P25942); assay: Surface plasmon resonance analysis of affinity for CD40; assay type: binding; conditions: SPR, 25° C.
Chain of recombinant human CD40 (P25942 21-277): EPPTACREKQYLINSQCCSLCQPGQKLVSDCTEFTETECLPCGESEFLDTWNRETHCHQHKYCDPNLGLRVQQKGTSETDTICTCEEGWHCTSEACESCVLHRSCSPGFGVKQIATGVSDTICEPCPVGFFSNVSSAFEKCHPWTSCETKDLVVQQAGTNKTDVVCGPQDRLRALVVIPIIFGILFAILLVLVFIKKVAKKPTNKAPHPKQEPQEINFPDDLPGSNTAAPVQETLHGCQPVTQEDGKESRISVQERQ
Experimental: The binding analyses of recombinant CFZ533 were performed at 25° C. with HBS−EP+ as running buffer. A typical binding analysis cycle consisted of three steps: (i) capture of the antibody via ProteinA immobilized on the chip surface, (ii) binding of CD40 antigen to the captured anti-CD40 antibody, and (iii) regeneration of the ProteinA surface. To determine the kinetic rate constants of the antigen-antibody binding interactions, binding data were processed, double referenced with responses from blank injections. The binding curves were fitted locally using the 1:1 interaction model of the Biacore T100 Evaluation software to determine kinetic rate constants. The value for the equilibrium dissociation constant (KD) was calculated as the ratio of the rate constants kd/ka. All binding measurements were performed in two independent experiments.

CD20pos B cells = assay: In vitro B cell depletion in human whole blood; assay type: cell-based; conditions: 72 hours; Rituximab 50 μg/ml, CFZ533 dose titration
Experimental: See supplementary material for detailed methods. Briefly, the ability of CFZ533 to mediated depletion of CD20^pos B cells was monitored in human whole blood over a period of three days in comparison to the B cell depleting antibody Rituximab. For CDC, CFZ533 or Rituximab were incubated with RAJI B cells in the presence or absence of rabbit complement and cell lysis was assessed by luminescence.
B cells numbers were determined based on CD45pos and CD19pos events falling within lymphocyte FSC (forward-scattered light)/SSC (side-scattered light) gate. Results for individual antibody concentrations were calculated as percent remaining B cells with reference to untreated samples and graphed as a function of log-transformed antibody concentration (adjusted to 100% and shown as a dotted line). Data represent the mean and SD of eight independent donors. […] Concentration dependent killing of the Raji cells was analyzed after 2 hours, where the viability of the cells was measured by determination of the ATP concentration in each well using luciferase. Results are presented as isotype-control normalized relative luciferase units (RLU) as a function of log-transformed antibody concentration.

human B cell line RI-1 = assay: Internalization by image flow cytometry; assay type: cell-based; conditions: 3 hours at 37° C.
Experimental: Internalization of fluorescently tagged CFZ533 and rCD154 was assessed in vitro using the human B cell line RI-1 (Th'ng et al, 1987). CD40 dependence of CFZ533 internalization was assessed using a CD40 knockout RI-1 cell line. Internalization was assessed using an Amnis® image flow cytometer (Merck KHaA, Darnstadt) according to the manufacturer's instructions and data analyzed using ImageStream®^X software.
FIG. 8B. Relative internalization erode of CFZ533 and rCD154 under permissive conditions (non-permissive erode values subtracted). Each dot represents data from an individual experiment and the population mean is indicated as a horizontal red line. FIG. 8C. Representative images of individual CD40 expressing or CD40 knock-out RI-1 cells cultured with Alexa488 labeled CFZ533 for 3 hours at 37° C. In all experiments, cells were co-stained with AlexaFlour 647 labeled CD45 to demark the cell membrane.

## C=CC[C@@H]1/C=C(\C)C[C@H](C)C[C@H](OC)[C@H]2O[C@@](O)(C(=O)C(=O)N3CCCC[C@H]3C(=O)O[C@H](/C(C)=C/[C@@H]3CC[C@@H](O)[C@H](OC)C3)[C@H](C)[C@@H](O)CC1=O)[C@H](C)C[C@@H]2OC [tacrolimus, reference compound]
[1]
  average CADI (mean±SEM): 5.14±0.80 and 5.1±0.8

## HCD122: parental antibody, wild-type IgG1 version of CFZ533 [reference compound]
Recombinant human CD40
  ka [1/Ms]: 2.84 ± 0.67 × 10^5 1/Ms
  kd [1/s]: 1.26 ± 0.03 × 10^−4 1/s

## Rituximab: depleting anti-CD20 antibody [reference compound]
CD20pos B cells
  B cells eliminated in human whole blood: approximately 80%

B1: rCD154: recombinant human CD154, the CD40 ligand (protein)
chain: MQKGDQNPQIAAHVISEASSKTTSVLQWAEKGYYTMSNNLVTLENGKQLTVKRQGLYYIYAQVTFCSNREASSQAPFIASLCLKSPGRFERILLRAANTHSSAKPCGQQSIHLGGVFELQPGASVFVNVTDPSQVSHGTGFTSFGLLKL
Human B cell line RI-1
  Internalization by RI-1 B cells: internalized
